Assays:
HIV-1 p24 protein [1] = target: T1, HIV-1 p24 protein (HIV-1, UniProt P03349 135-365); experiment: indirect ELISA on HIV-1 p24, OD 405 nm, antibody titrated 1:10 from 2 µg/mL (no unit beside the EC50; taken from the x axis, p24 Antibody [ng/mL])
T1 construct: also called HIV-1 p24 antigen; HIV-p24

HIV-1 p24 protein [2] = target: T1, HIV-1 p24 protein; experiment: BLI, antibody captured on anti-mouse Fc biosensors, 1:1 model

B1: anti-HIV-1 antibody #B (antibody, V domains shown)
VH: EVQLVESGGGLVKPGGSLKLSCAASGFAFSSYDMSWVRQTPDKRLEWVAYITSGVGNLNYLDTVKGRFTISRDNAKNTLYLQMSSLRSEDTAMYFCLRPPSYFGSSYDAMDYWGRGTSVTVSS
VL: DIVLTQSPATLSVTPGDSVSLSCRASQSISDNLHWYRQKSHESPRLLIKYSSQSISGIPSRFSGSGSGTDFTLSINSVETEDFGMYFCQQSNSWPFTFGSGTNLELKR
notes: recombinant, expressed in CHO cells; also called mAb B
- EC50 (HIV-1 p24 protein [1]): 76.7 ng/mL
- Kd (HIV-1 p24 protein [2]): < 0.00024 nM
- koff (HIV-1 p24 protein [2]): < 1e-07 s⁻¹
- kon (HIV-1 p24 protein [2]): 408000 M⁻¹ s⁻¹

B2: anti-HIV-1 antibody #D (antibody, V domains shown)
VH: QIQLQQSGPELVKPGASVKVSCKASGYAFTSYQLYWVKQSHGKSLEWIGYIDPYNGGTGYNQKFKGKATLTVDKSSSTAYMHLNSLTSEDSAVYYCASPRWLPAGDYWGQGTSVTVSS
VL: DVVMTQTPLSLPVSLGDQASISCRSSQSLVNSDGNTFLQWLLQKPGQSPKLLIYKVSNRFSGVPDRFSGSGSGTDFTLRISRVEAEDLGVYFCSQSTHVPWTFGGGTKLEIKR
notes: recombinant, expressed in CHO cells; also called mAb D; monoclonal antibody D
- EC50 (HIV-1 p24 protein [1]): 8.41 ng/mL
- Kd (HIV-1 p24 protein [2]): < 0.00052 nM
- koff (HIV-1 p24 protein [2]): < 1e-07 s⁻¹
- kon (HIV-1 p24 protein [2]): 194000 M⁻¹ s⁻¹

B3: anti-HIV-1 antibody #A (antibody, V domains shown)
VH: EVKLVESGGGLVKPGGSLQLSCVASGFTFSSYAMSWVRQTPEKGLEWVASITSGGNTYYPDSVKGRFTISRDNAGNILYLQMSSLRSEDTAMFYCAREVLSVPFAYWGQGTLVTVST
VL: DIQMTQTTSSLSASLGDRVTINCRASQDISNYLHWYQQKPDGTVKLLIYYTSRLHSGVPSRFSGSGSGTDYSLTISNLEKEDIATYFCQQGNSFPWTFGGGTKVEIKR
notes: recombinant, expressed in CHO cells; also called mAb A
- EC50 (HIV-1 p24 protein [1]): 3.6 ng/mL
- Kd (HIV-1 p24 protein [2]): 0.2 nM
- koff (HIV-1 p24 protein [2]): 5.9e-05 s⁻¹
- kon (HIV-1 p24 protein [2]): 241000 M⁻¹ s⁻¹
